# Assay results: the supplement of paper PMC9732359
# ± gives the uncertainty stated by the source.
# Assay: protein stability index of a GFP-peptide fusion (yeast GPS) (PSI 1-4); higher = more stable; sorted into four equal gates, so the index is relative within each strain
# How it was run: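 Plasmids in a pooled yeast library fused tiled 17-residue yeast protein peptides downstream of GFP and also expressed Cherry. Mid-log cultures grown without leucine were sorted into four equal gates by GFP/Cherry fluorescence ratio. Each gate's plasmids were PCR-amplified and Illumina-sequenced, and reads were matched to strains by barcodes. The protein stability index is derived by multiplying each gate's read frequency by its gate number and summing the results.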
Sequence,protein stability index (doa10∆),protein stability index (pdr5∆),protein stability index (san1∆),protein stability index (ubr1∆)
SVQNLDQLLTDLIETSF [NUT1],2.9 ± 0.15,2.64 ± 0.1,2.94 ± 0.066,2.85 ± 0.11
SNEICDLAYQYVRALEL [SRB2],2.92 ± 0.047,2.77 ± 0.037,2.88 ± 0.046,3.08 ± 0.042
EKPAPVRTHMRNMIIVP [RPS15],1.13 ± 0.064,1.17 ± 0.081,1.21 ± 0.19,1.14 ± 0.095
DDDLFETLVLSYFSPIN [YCG1],2.23 ± 0.069,1.44 ± 0.05,1.36 ± 0.093,1.35 ± 0.032
ARIALRHLEKEGIIKPI [RPS25A],2.98 ± 0.092,3.37 ± 0.16,3.06 ± 0.094,3.12 ± 0.085
RILSTLDRELLKPSMSV [RPT3],3.04 ± 0.081,2.73 ± 0.11,3.07 ± 0.073,2.57 ± 0.15
VGKRVRYLVGGNKIQKV [RPS7A],1.25 ± 0.084,1.98 ± 0.18,1.49 ± 0.26,1.7 ± 0.17
QFSYLSSTLGIDLEDIK [PCI8],2.36 ± 0.064,2.23 ± 0.076,1.71 ± 0.12,2.01 ± 0.07
SDDIAENDNLDNVSKNA [YCG1],3.39 ± 0.088,3.34 ± 0.14,3.25 ± 0.063,3.23 ± 0.085
KNLKPQEQLKNVKNDVS [YIL149C/MLP2],3.23 ± 0.089,3.21 ± 0.067,2.51 ± 0.1,3.01 ± 0.096
NLLVLRGKNEIIQNAQR [RPO21],1.56 ± 0.11,1.41 ± 0.092,1.69 ± 0.16,1.26 ± 0.085
GSFKVVKGTNISEKDLV [RPO31],2.6 ± 0.27,3.36 ± 0.14,3.51 ± 0.044,3.5 ± 0.089
QYSTRHDAPRGLFPFES [SWI3],3.14 ± 0.062,3.17 ± 0.073,3.2 ± 0.077,3.13 ± 0.067
ALIRRDFTLIPRMASVF [CDC53],2.12 ± 0.13,2.39 ± 0.072,2.64 ± 0.16,2.17 ± 0.14
CKDDVQLQKILESLKPI [MTW1],3.11 ± 0.11,2.94 ± 0.089,2.79 ± 0.06,2.87 ± 0.07
SENRNNIKSSISNGNLA [YOR098C/NUP1],,3.65 ± 0.24,2.96 ± 0.22,3.17 ± 0.24
QWRYLYDTQLKVSPEEL [ARP7],1.98 ± 0.042,1.97 ± 0.042,2.08 ± 0.056,1.67 ± 0.049
EMMKMMQDPQMQQMAKQ [SRP54],3.07 ± 0.057,2.76 ± 0.067,2.77 ± 0.039,2.67 ± 0.038
KVAKRTKIKPFIKVVNY [RPL27A],2.9 ± 0.09,2.8 ± 0.096,2.86 ± 0.06,2.64 ± 0.076
KNFKGIEEIEYNVKNII [PCI8],3.05 ± 0.078,3.04 ± 0.093,3.11 ± 0.061,3.05 ± 0.063
QLIKQSIKNNVAMCFVI [SNU114],1.37 ± 0.16,1.69 ± 0.14,1.24 ± 0.2,
CLFENDLQRLKPLGLDR [ITC1],2.92 ± 0.074,3.19 ± 0.11,3.15 ± 0.065,3.09 ± 0.042
SRDLWCFSINDDPVPTP [SSN2],2.21 ± 0.085,2.21 ± 0.088,2.94 ± 0.081,2.63 ± 0.1
LDTFIKIDGNPDELIKA [PRE5],3.19 ± 0.12,3.19 ± 0.12,3.31 ± 0.071,3.36 ± 0.079
FPVSLSQPSKKSFANHT [SIR4],2.82 ± 0.051,2.87 ± 0.046,3.01 ± 0.054,3 ± 0.039
RTVAGFSNVELPQCIIP [ARP7],2.8 ± 0.05,2.76 ± 0.054,2.56 ± 0.051,2.7 ± 0.034
LLICIGTSLKVAPVSEI [SIR2],1.91 ± 0.11,2.01 ± 0.077,2.29 ± 0.18,1.79 ± 0.05

Sequence,protein stability index (doa10∆),protein stability index (pdr5∆),protein stability index (san1∆),protein stability index (ubr1∆)
LHQRTHKQVYPLRMETI [DSN1],2.28 ± 0.06,2.66 ± 0.042,2.44 ± 0.048,2.6 ± 0.039
VLKVYSMINNSNQAVGQ [SRB8],2.85 ± 0.07,2.78 ± 0.065,2.83 ± 0.067,2.63 ± 0.051
PDLQFIVISLKNTMFEK [SMC1],2.83 ± 0.082,2.68 ± 0.071,3.01 ± 0.05,2.77 ± 0.045
LLKELSKNAQFICTTFR [SMC3],2.45 ± 0.063,2.01 ± 0.052,1.84 ± 0.1,1.94 ± 0.048
DACPLDNQPWQLARCGR [HRT1],2.76 ± 0.068,2.56 ± 0.067,2.03 ± 0.077,2.61 ± 0.059
PLVAHLGLYVGVDDQIL [YJL039C/NUP192],2.42 ± 0.074,2.85 ± 0.12,2.26 ± 0.11,1.48 ± 0.13
NVAHRIKEDIKKQPSIL [SNF2],2.9 ± 0.15,3.21 ± 0.14,3.05 ± 0.097,3.19 ± 0.12
AYRTDVIQALGGIETIL [PRP8],1.44 ± 0.073,1.54 ± 0.066,1.46 ± 0.13,1.45 ± 0.054
LEEHKNHLDELQKKFVT [SMC1],2.88 ± 0.08,2.83 ± 0.11,2.88 ± 0.059,2.91 ± 0.052
CILRFLQLPIEDKFLYG [SWI3],1.85 ± 0.07,1.72 ± 0.085,1.18 ± 0.19,1.18 ± 0.077
LSSAGKNSSVSSLMNGL [SRB5],,1.24 ± 0.11,,
YTYHSTNKDNKAELIKP [ARP9],2.74 ± 0.065,2.69 ± 0.053,3.06 ± 0.044,2.98 ± 0.063
NSCFSDGSQQNLQQDKT [REC8],2.77 ± 0.09,2.76 ± 0.13,2.18 ± 0.2,2.88 ± 0.059
RPKKITGWITQSTPVLL [RPN1],2.21 ± 0.048,2.11 ± 0.043,2.3 ± 0.057,2.18 ± 0.035
KAELIKPIQNGEIIDIS [ARP9],3.31 ± 0.087,3.02 ± 0.1,3.33 ± 0.067,2.92 ± 0.092
TGEFDFEAAVKMSDGFN [RPT4],2.91 ± 0.15,3.33 ± 0.14,2.57 ± 0.18,3.31 ± 0.16
FARLSRLLSLWEVFQMA [RPC82],1.9 ± 0.11,1.97 ± 0.096,2.86 ± 0.13,2.08 ± 0.051
LFAESHDVLQKLNTLSE [YML103C/NUP188],2.77 ± 0.067,3.17 ± 0.072,3.06 ± 0.065,3 ± 0.05
HAYRDVLAQYHEAKERI [SNF6],2.98 ± 0.066,3.43 ± 0.071,3.09 ± 0.059,3.31 ± 0.051
AERTMSKKETKLQENRT [SMC2],2.84 ± 0.25,3.17 ± 0.19,3.31 ± 0.15,3.04 ± 0.13
KGNLLEGKKVMAPYLPG [RPN2],2.14 ± 0.061,1.95 ± 0.042,2.03 ± 0.068,2.14 ± 0.045
NNTNTDNVSGLTRNAPL [SNF2],3.06 ± 0.069,3.35 ± 0.049,3.05 ± 0.039,3.16 ± 0.037
PELGDKFSSRHGQKGVC [RET1],3.26 ± 0.12,3.42 ± 0.12,2.99 ± 0.14,3.09 ± 0.1
NSTATMQHNPLAGKRGP [PGD1],3.05 ± 0.047,3.09 ± 0.044,3 ± 0.042,3.03 ± 0.033
LDNLTEDPNSAAFDEVE [DIS3],3.19 ± 0.085,3.3 ± 0.072,3.22 ± 0.041,3.12 ± 0.043
KTDPAGYYVGYKATATG [SCL1],2.98 ± 0.08,3.24 ± 0.065,3.21 ± 0.065,3.25 ± 0.1
ADTGRDDTKETVYISSI [RPN11],3.12 ± 0.09,3.28 ± 0.1,3.01 ± 0.073,3.16 ± 0.053

Sequence,protein stability index (doa10∆),protein stability index (pdr5∆),protein stability index (san1∆),protein stability index (ubr1∆)
HQNVIIGSNGSGKSNFF [SMC3],3.07 ± 0.086,2.7 ± 0.091,2.84 ± 0.069,2.85 ± 0.057
GDYSQATVLSRKILKKT [RPN5],2.68 ± 0.054,2.87 ± 0.067,2.75 ± 0.06,2.95 ± 0.051
KVKPIRGFCQRLKGKQG [RPO31],2.79 ± 0.14,2.97 ± 0.16,2.79 ± 0.13,
VGDIVDIKANGSIQKGM [RPL21A],2.35 ± 0.072,1.9 ± 0.065,1.62 ± 0.089,2.19 ± 0.047
FICTTFRTDMLQVADKF [SMC3],1.38 ± 0.086,2.31 ± 0.12,1.6 ± 0.089,1.67 ± 0.075
IQDSNGDVKNMEDVKIQ [SWI3],2.86 ± 0.071,2.8 ± 0.091,2.41 ± 0.1,2.94 ± 0.061
MAQENSMERKVQGAAPW [MCD1],3.35 ± 0.26,2.92 ± 0.11,,
RALFRQLKRWYWQFNGV [RMP1],2.29 ± 0.18,1.24 ± 0.12,1.19 ± 0.18,1.34 ± 0.11
LLFNNDFPLLKVLAAHT [RRP40],1.23 ± 0.13,1.25 ± 0.11,1.18 ± 0.12,1.09 ± 0.058
HASKAIGLPRHSLAYLL [RRP6],2.24 ± 0.046,2.2 ± 0.048,2.37 ± 0.059,1.72 ± 0.037
ELVTISWVQPRIISGDQ [RPN9],2.44 ± 0.12,1.96 ± 0.087,2.27 ± 0.12,2.98 ± 0.1
LRSKTSAGRIESNNPSH [SIR4],2.56 ± 0.1,2.48 ± 0.081,2.55 ± 0.18,2.79 ± 0.098
RQFSNEEVNRCYLRWQH [SNF2],2.83 ± 0.081,2.78 ± 0.08,2.95 ± 0.086,3.01 ± 0.071
YCDPNTQEIRPVNTGVL [RRP40],2.62 ± 0.055,2.89 ± 0.05,2.62 ± 0.052,2.76 ± 0.069
PLHLIFAQPVADIENST [SSN2],2.67 ± 0.078,2.51 ± 0.097,2.72 ± 0.13,2.67 ± 0.1
NKLNFIVDDKQEMIDIL [DIB1],3.37 ± 0.099,3.01 ± 0.17,2.9 ± 0.15,3 ± 0.12
LTSNLSNYSRTMTISHL [YJL039C/NUP192],2.56 ± 0.074,2.32 ± 0.061,1.98 ± 0.084,2.48 ± 0.04
NFLSKIRNINVQDALLT [SNF2],1.63 ± 0.047,1.99 ± 0.054,1.77 ± 0.083,1.54 ± 0.032
IVDDKQEMIDILETIFR [DIB1],2.98 ± 0.1,3.17 ± 0.13,3.02 ± 0.22,2.75 ± 0.18
TKLTTCKRELAFVKQKN [YIL149C/MLP2],1.84 ± 0.078,1.81 ± 0.086,1.54 ± 0.11,1.48 ± 0.071
ETSSDGSKSDGSAATSG [RPN1],3.39 ± 0.053,3.4 ± 0.055,3.62 ± 0.048,3.3 ± 0.036
KEEFSSAENRDEKDYLT [CSE2],2.79 ± 0.083,2.85 ± 0.086,2.65 ± 0.065,2.99 ± 0.12
EVFSRPEWMILTCLPVP [RPO21],1.42 ± 0.12,1.48 ± 0.12,1.51 ± 0.14,1.67 ± 0.063
MPGVSVRDVAAQDFINA [RPS19A],1.81 ± 0.12,1.31 ± 0.12,,1.16 ± 0.11
TLEDALRRIITDLNQDS [GRR1],2.01 ± 0.074,1.86 ± 0.063,2.1 ± 0.067,2.4 ± 0.053
RIIEKSVRRSGALDVEG [RRP45],2.43 ± 0.07,2.65 ± 0.075,2.47 ± 0.11,2.53 ± 0.072
